One block for each substance: values may come before it.
Columns and labels:
[1] = target: rHuman P-Cadherin/Fc Chimera, CF (R&D Systems Cat#861-PC) (human) (UniProt P22223); assay: ECL multispot (MSD) binding assay, antigen spotted on plate, Fab in solution; blank spot 237
[2] = target: rHuman HGF R/c-MET/Fc Chimera, CF (R&D Systems Cat#358-MT/CF) (human) (UniProt P08581); assay: as above
[3] = target: rHuman Erythropoietin R/Fc Chimera, CF (R&D Systems Cat#963-ER) (human) (UniProt P19235); assay: as above
[4] = target: rHuman IGF-1 sR, CF (R&D Systems Cat#391-GR) (human) (UniProt P08069); assay: as above
[5] = target: rHuman ErbB2/Fc Chimera, CF (R&D Systems Cat#1129-ER) (human) (UniProt P04626); assay: as above
[6] = target: rHuman CD44/Fc Chimera, CF (R&D Systems Cat#3660-CD) (human) (UniProt P16070); assay: as above
[7] = target: rHuman Notch-1/Fc Chimera, CF (R&D Systems Cat#3647-TK) (human) (UniProt P46531); assay: as above
[8] = target: rHuman EGF R/Fc Chimera, CF (R&D Systems Cat#344-ER) (human) (UniProt P00533); assay: as above
[9] = target: rHuman P-Cadherin/Fc Chimera, CF (R&D Systems Cat#861-PC) (human) (UniProt P22223); assay: ECL multispot (MSD) binding assay, antigen spotted on plate, Fab in solution; blank spot 277
[10] = target: rHuman HGF R/c-MET/Fc Chimera, CF (R&D Systems Cat#358-MT/CF) (human) (UniProt P08581); assay: as above
[11] = target: rHuman Erythropoietin R/Fc Chimera, CF (R&D Systems Cat#963-ER) (human) (UniProt P19235); assay: as above
[12] = target: rHuman IGF-1 sR, CF (R&D Systems Cat#391-GR) (human) (UniProt P08069); assay: as above
[13] = target: rHuman ErbB2/Fc Chimera, CF (R&D Systems Cat#1129-ER) (human) (UniProt P04626); assay: as above
[14] = target: rHuman CD44/Fc Chimera, CF (R&D Systems Cat#3660-CD) (human) (UniProt P16070); assay: as above
[15] = target: rHuman Notch-1/Fc Chimera, CF (R&D Systems Cat#3647-TK) (human) (UniProt P46531); assay: as above
[16] = target: rHuman EGF R/Fc Chimera, CF (R&D Systems Cat#344-ER) (human) (UniProt P00533); assay: as above
[17] = target: rHuman P-Cadherin/Fc Chimera, CF (R&D Systems Cat#861-PC) (human) (UniProt P22223); assay: ECL multispot (MSD) binding assay, antigen spotted on plate, Fab in solution; blank spot 349
[18] = target: rHuman HGF R/c-MET/Fc Chimera, CF (R&D Systems Cat#358-MT/CF) (human) (UniProt P08581); assay: as above
[19] = target: rHuman IGF-1 sR, CF (R&D Systems Cat#391-GR) (human) (UniProt P08069); assay: as above
[20] = target: rHuman ErbB2/Fc Chimera, CF (R&D Systems Cat#1129-ER) (human) (UniProt P04626); assay: as above
[21] = target: rHuman CD44/Fc Chimera, CF (R&D Systems Cat#3660-CD) (human) (UniProt P16070); assay: as above
[22] = target: rHuman Notch-1/Fc Chimera, CF (R&D Systems Cat#3647-TK) (human) (UniProt P46531); assay: as above
[23] = target: rHuman EGF R/Fc Chimera, CF (R&D Systems Cat#344-ER) (human) (UniProt P00533); assay: as above
[24] = target: rHuman P-Cadherin/Fc Chimera, CF (R&D Systems Cat#861-PC) (human) (UniProt P22223); assay: ECL multispot (MSD) binding assay, antigen spotted on plate, Fab in solution; blank spot 215
[25] = target: rHuman HGF R/c-MET/Fc Chimera, CF (R&D Systems Cat#358-MT/CF) (human) (UniProt P08581); assay: as above
[26] = target: rHuman Erythropoietin R/Fc Chimera, CF (R&D Systems Cat#963-ER) (human) (UniProt P19235); assay: as above
[27] = target: rHuman IGF-1 sR, CF (R&D Systems Cat#391-GR) (human) (UniProt P08069); assay: as above
[28] = target: rHuman ErbB2/Fc Chimera, CF (R&D Systems Cat#1129-ER) (human) (UniProt P04626); assay: as above
[29] = target: rHuman CD44/Fc Chimera, CF (R&D Systems Cat#3660-CD) (human) (UniProt P16070); assay: as above
[30] = target: rHuman Notch-1/Fc Chimera, CF (R&D Systems Cat#3647-TK) (human) (UniProt P46531); assay: as above
[31] = target: rHuman EGF R/Fc Chimera, CF (R&D Systems Cat#344-ER) (human) (UniProt P00533); assay: as above
[32] = target: rHuman IGF-1 sR, (IGF-1 sR), CF (R&D Systems Cat#391-GR) (human) (UniProt P08069); assay: MSD Multispot ECL, antigen spotted on plate, Fab in solution; blank spot of the row 424
[33] = target: rHuman ErbB2/Fc Chimera, CF (R&D Systems Cat#1129-ER) (human) (UniProt P04626); assay: as above
[34] = target: rHuman CD44/Fc Chimera, CF (R&D Systems Cat#3660-CD) (human) (UniProt P16070); assay: as above
[35] = target: rHuman IGF-1 sR, (IGF-1 sR), CF (R&D Systems Cat#391-GR) (human) (UniProt P08069); assay: MSD Multispot ECL, antigen spotted on plate, Fab in solution; blank spot of the row 240
[36] = target: rHuman ErbB2/Fc Chimera, CF (R&D Systems Cat#1129-ER) (human) (UniProt P04626); assay: as above
[37] = target: rHuman CD44/Fc Chimera, CF (R&D Systems Cat#3660-CD) (human) (UniProt P16070); assay: as above
[38] = target: rHuman HGF R/c-MET/Fc Chimera, CF (R&D Systems Cat#358-MT/CF) (human) (UniProt P08581); assay: ECL (MSD) multispot binding assay, antigen spotted on the plate, Fab in solution; blank spot of this well 213
[39] = target: rHuman IGF-1 sR, CF (R&D Systems Cat#391-GR) (human) (UniProt P08069); assay: as above
[40] = target: rHuman ErbB2/Fc Chimera, CF (R&D Systems Cat#1129-ER) (human) (UniProt P04626); assay: as above
[41] = target: rHuman CD44/Fc Chimera, CF (R&D Systems Cat#3660-CD) (human) (UniProt P16070); assay: as above
[42] = target: rHuman Notch-1/Fc Chimera, CF (R&D Systems Cat#3647-TK) (human) (UniProt P46531); assay: as above
[43] = target: rHuman EGF R/Fc Chimera, CF (R&D Systems Cat#344-ER) (human) (UniProt P00533); assay: as above
[44] = target: rHuman P-Cadherin/Fc Chimera, CF (R&D Systems Cat#861-PC) (human) (UniProt P22223); assay: ECL multispot (MSD) binding assay, antigen spotted on plate, Fab in solution; blank spot 321
[45] = target: rHuman HGF R/c-MET/Fc Chimera, CF (R&D Systems Cat#358-MT/CF) (human) (UniProt P08581); assay: as above
[46] = target: rHuman IGF-1 sR, CF (R&D Systems Cat#391-GR) (human) (UniProt P08069); assay: as above
[47] = target: rHuman ErbB2/Fc Chimera, CF (R&D Systems Cat#1129-ER) (human) (UniProt P04626); assay: as above
[48] = target: rHuman CD44/Fc Chimera, CF (R&D Systems Cat#3660-CD) (human) (UniProt P16070); assay: as above
[49] = target: rHuman Notch-1/Fc Chimera, CF (R&D Systems Cat#3647-TK) (human) (UniProt P46531); assay: as above
[50] = target: rHuman EGF R/Fc Chimera, CF (R&D Systems Cat#344-ER) (human) (UniProt P00533); assay: as above

ECL signal [1]: 343
ECL signal [2]: 822
ECL signal [3]: 523
ECL signal [4]: 785
ECL signal [5]: 925
ECL signal [6]: 632
ECL signal [7]: 443
ECL signal [8]: 794
Substance: Fab VH5-51_IGHD5-18*01>3_IGHJ4*01 G100K/G104T I50A & V3-4_IGLJ1*01

ECL signal [9]: 334
ECL signal [10]: 803
ECL signal [11]: 584
ECL signal [12]: 827
ECL signal [13]: 989
ECL signal [14]: 591
ECL signal [15]: 566
ECL signal [16]: 745
Substance: Fab VH5-51_IGHD5-18*01>3_IGHJ4*01 G100K/G104T Y52A & V3-4_IGLJ1*01

ECL signal [17]: 424
ECL signal [18]: 1000
ECL signal [19]: 943
ECL signal [20]: 1140
ECL signal [21]: 556
ECL signal [22]: 536
ECL signal [23]: 976
Substance: Fab VH5-51_IGHD5-18*01>3_IGHJ4*01 G100K/G104T P53A & V3-4_IGLJ1*01

ECL signal [24]: 432
ECL signal [25]: 875
ECL signal [26]: 497
ECL signal [27]: 828
ECL signal [28]: 1090
ECL signal [29]: 517
ECL signal [30]: 612
ECL signal [31]: 803
Substance: Fab VH5-51_IGHD5-18*01>3_IGHJ4*01 G100K/G104T I51A & V3-4_IGLJ1*01

ECL signal [32]: 877
ECL signal [33]: 1100
ECL signal [34]: 579
ECL signal [35]: 964
ECL signal [36]: 1070
ECL signal [37]: 633
ECL signal [38]: 867
ECL signal [39]: 781
ECL signal [40]: 1100
ECL signal [41]: 540
ECL signal [42]: 437
ECL signal [43]: 768
Substance: Fab VH5-51_IGHD5-18*01>3_IGHJ4*01 G100K/G104T (KT) & V3-4_IGLJ1*01

ECL signal [44]: 365
ECL signal [45]: 1130
ECL signal [46]: 982
ECL signal [47]: 1200
ECL signal [48]: 600
ECL signal [49]: 523
ECL signal [50]: 915
Substance: Fab VH5-51_IGHD5-18*01>3_IGHJ4*01 G100K/G104T D57A & V3-4_IGLJ1*01
